Laboratory results from the supplement of paper PMC9233669.
Fewer inactive variants are shown than the library holds.

Assays:
biotinyl-Leu-oxazolone = assay: self-aminoacylation, catalytic enhancement (BLO) (fold over background); higher = more active; k-Seq, kA / k0A0; sequences stand for … in GGGAAUGGAUCCACAUCUACGAAUUC…UUCACUGCAGACUUGACGAAGCUG
In short: (§1)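 The uncatalyzed rate is the low-activity peak of a bimodal Gaussian fit, and catalytic enhancement is median kA divided by it. The kA values came from pseudo-first-order fits, with 1000 bootstraps, of per-sequence fraction reacted measured by streptavidin capture, triplicate qPCR and Illumina sequencing. Mutagenized RNA pools with a 21-nt variable region (0.43 μM) were reacted with each biotinyl-aminoacyl-oxazolone at 2–1250 μM in 50 μL HEPES/NaCl/KCl/MgCl2/CaCl2 buffer with 5% acetonitrile, pH 6.9–7.0, for 90 minutes at room temperature.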

biotinyl-Trp-oxazolone = assay: self-aminoacylation, catalytic enhancement (BWO) (fold over background); higher = more active; k-Seq, kA / k0A0; sequences stand for … in GGGAAUGGAUCCACAUCUACGAAUUC…UUCACUGCAGACUUGACGAAGCUG
In short: as §1

biotinyl-Phe-oxazolone = assay: self-aminoacylation, catalytic enhancement (BFO) (fold over background); higher = more active; k-Seq, kA / k0A0; sequences stand for … in GGGAAUGGAUCCACAUCUACGAAUUC…UUCACUGCAGACUUGACGAAGCUG
In short: as §1

biotinyl-Val-oxazolone = assay: self-aminoacylation, catalytic enhancement (BVO) (fold over background); higher = more active; k-Seq, kA / k0A0; sequences stand for … in GGGAAUGGAUCCACAUCUACGAAUUC…UUCACUGCAGACUUGACGAAGCUG
In short: as §1

biotinyl-Ile-oxazolone = assay: self-aminoacylation, catalytic enhancement (BIO) (fold over background); higher = more active; k-Seq, kA / k0A0; sequences stand for … in GGGAAUGGAUCCACAUCUACGAAUUC…UUCACUGCAGACUUGACGAAGCUG
In short: as §1

biotinyl-Met-oxazolone = assay: self-aminoacylation, catalytic enhancement (BMO) (fold over background); higher = more active; k-Seq, kA / k0A0; sequences stand for … in GGGAAUGGAUCCACAUCUACGAAUUC…UUCACUGCAGACUUGACGAAGCUG
In short: as §1

| Sequence | self-aminoacylation (biotinyl-Leu-oxazolone) | self-aminoacylation (biotinyl-Trp-oxazolone) | self-aminoacylation (biotinyl-Phe-oxazolone) | self-aminoacylation (biotinyl-Val-oxazolone) | self-aminoacylation (biotinyl-Ile-oxazolone) | self-aminoacylation (biotinyl-Met-oxazolone) |
| --- | --- | --- | --- | --- | --- | --- |
| AAGUUUGCUGGUAGUCGCAAG [Fam3.1 aminoacylation ribozyme variant] | 0.96 | 0.864 | 1.12 | 0.86 | 0.97 | 0.778 |
| AAGUUUGCUUAUAGUGGCAAG [Fam3.1 aminoacylation ribozyme variant] | 0.644 | 0.94 | 1.38 | 0.711 | 0.789 | 0.861 |
| AAGUUUGCUUAUGGUCGCAAG [Fam3.1 aminoacylation ribozyme variant] | 0.603 | 0.782 | 0.863 | 0.727 | 0.54 | 0.728 |
| AAGUUUGCUUCUAGUCGCAAG [Fam3.1 aminoacylation ribozyme variant] | 1.2 | 1.11 | 1.54 | 1.23 | 1.39 | 0.998 |
| AAGUUUGGUAAGAGUCGCAAG [Fam3.1 aminoacylation ribozyme variant] | 1.43 | 1.31 | 1.7 | 1.3 | 1.58 | 1.3 |
| AAGUUUGGUAAUAGUCACAAG [Fam3.1 aminoacylation ribozyme variant] | 0.902 | 0.739 | 1.51 | 1.07 | 1.04 | 1.01 |
| AAGUUUGGUAAUAGUCCCAAG [Fam3.1 aminoacylation ribozyme variant] | 0.963 | 1.04 | 1.39 | 0.864 | 1.32 | 1.05 |
| AAGUUUGGUAAUAGUCGCUAG [Fam3.1 aminoacylation ribozyme variant] | 0.996 | 1.47 | 1.64 | 0.958 | 1.18 | 1.05 |
| AAGUUUGUUAAUAAUCGCAAG [Fam3.1 aminoacylation ribozyme variant] | 0.995 | 0.883 | 1.05 | 0.842 | 0.928 | 0.824 |
| AAGUUUGUUAAUACUCGCAAG [Fam3.1 aminoacylation ribozyme variant] | 0.76 | 0.7 | 1.07 | 0.81 | 0.893 | 0.692 |
| AAGUUUGUUAAUAGUCGCAAA [Fam3.1 aminoacylation ribozyme variant] | 1.68 | 1.43 | 2.15 | 1.32 | 1.8 | 1.63 |
| AAGUUUGUUAAUAGUCGCAAU [Fam3.1 aminoacylation ribozyme variant] | 1.51 | 1.94 | 2.29 | 1.45 | 1.73 | 1.5 |
| AAGUUUGUUAAUAGUCUCAAG [Fam3.1 aminoacylation ribozyme variant] | 1.02 | 1.23 | 1.62 | 1.15 | 1.22 | 1.23 |
| AAGUUUUCGAAUAGUCGCAAG [Fam3.1 aminoacylation ribozyme variant] | 1.86 | 2.24 | 3.28 | 1.81 | 2.14 | 1.82 |
| AAGUUUUCUAAUAGUCGCAAG [Fam3.1 aminoacylation ribozyme variant] | 1.32 | 1.58 | 2.64 | 1.31 | 1.51 | 1.23 |
| AAGUUUUCUAAUAGUCGCAGG [Fam3.1 aminoacylation ribozyme variant] | 1.55 | 2.19 | 3.74 | 1.52 | 1.59 | 1.6 |
| AAGUUUUCUAAUAGUCGCCAG [Fam3.1 aminoacylation ribozyme variant] | 1.15 | 1.91 | 2.81 | 1.32 | 1.78 | 1.54 |
| AAGUUUUCUAAUAGUCGCGAG [Fam3.1 aminoacylation ribozyme variant] | 1.88 | 2.99 | 5.94 | 1.71 | 2.02 | 1.84 |
| AAUACCCCGGUCAUCGAGUGA [Fam2.1 aminoacylation ribozyme variant] | 5.27 | 5.61 | 27.9 | 3.57 | 3.15 | 4.63 |
| AAUACCCUAGUCAUCGAGUGA [Fam2.1 aminoacylation ribozyme variant] | 4.49 | 5.18 | 15.4 | 2.64 | 2.46 | 4.24 |
| AAUACCCUGCUCAUCGAGUGA [Fam2.1 aminoacylation ribozyme variant] | 1.6 | 1.17 | 1.69 | 1.3 | 1.08 | 1.22 |
| AAUACCCUGGUCAUCGAGCGA [Fam2.1 aminoacylation ribozyme variant] | 1.55 | 2.75 | 1.56 | 1.66 | 1.65 | 2.03 |
| AAUACCCUGGUCAUUGAGUGA [Fam2.1 aminoacylation ribozyme variant] | 5.25 | 6.33 | 17.1 | 2.9 | 2.98 | 5.79 |
| AAUCAACUAGGUCAUCGGGUG [Fam2.2 aminoacylation ribozyme variant] | 6.32 | 6.47 | 39.7 | 4.4 | 4.49 | 5.89 |
| AAUCACCCAGGUCAUCGGGUG [Fam2.2 aminoacylation ribozyme variant] | 3.76 | 6.23 | 27.9 | 4.93 | 4.58 | 4.82 |
| AAUCACCUAAGUCAUCGGGUG [Fam2.2 aminoacylation ribozyme variant] | 7.68 | 7.91 | 44.5 | 4.44 | 4.89 | 6.3 |

| Sequence | self-aminoacylation (biotinyl-Leu-oxazolone) | self-aminoacylation (biotinyl-Trp-oxazolone) | self-aminoacylation (biotinyl-Phe-oxazolone) | self-aminoacylation (biotinyl-Val-oxazolone) | self-aminoacylation (biotinyl-Ile-oxazolone) | self-aminoacylation (biotinyl-Met-oxazolone) |
| --- | --- | --- | --- | --- | --- | --- |
| AAUCACCUAGGUCAACGGGUG [Fam2.2 aminoacylation ribozyme variant] | 3.39 | 3.32 | 10.3 | 2.77 | 2.29 | 2.91 |
| AAUCACCUAGGUCAUCCGGUG [Fam2.2 aminoacylation ribozyme variant] | 6.61 | 6.07 | 50 | 4.15 | 4.59 | 5.22 |
| AAUCACCUAGGUCAUCGGCUG [Fam2.2 aminoacylation ribozyme variant] | 2.14 | 2.68 | 10.9 | 2.34 | 2.3 | 3.21 |
| AAUCACCUAGGUCAUCGGGUC [Fam2.2 aminoacylation ribozyme variant] | 1.37 | 1.21 | 7.16 | 1.63 | 1.79 | 1.81 |
| AAUCACCUAGGUCAUCUGGUG [Fam2.2 aminoacylation ribozyme variant] | 2.27 | 2.52 | 11.2 | 1.67 | 1.96 | 2.08 |
| AAUCACCUAGGUCGUCGGGUG [Fam2.2 aminoacylation ribozyme variant] | 3.25 | 1.34 | 7.97 | 2.19 | 2.12 | 2.21 |
| AAUCACCUGGGUCAUCGGGUG [Fam2.2 aminoacylation ribozyme variant] | 4.47 | 7.63 | 31.9 | 6.36 | 4.12 | 4.32 |
| AAUCACUUAGGUCAUCGGGUG [Fam2.2 aminoacylation ribozyme variant] | 7.59 | 8.45 | 43 | 4.61 | 5.09 | 7.21 |
| AAUGCCCUGGUCAUCGAGUGA [Fam2.1 aminoacylation ribozyme variant] | 9.96 | 11.8 | 33.9 | 5.85 | 4.61 | 9.57 |
| AAUUACCUAGGUCAUCGGGUG [Fam2.2 aminoacylation ribozyme variant] | 6.53 | 7.49 | 38 | 4.24 | 4.3 | 6.04 |
| AAUUAUGCUAAUAGUCGCAAG [Fam3.1 aminoacylation ribozyme variant] | 1.81 | 2.57 | 3.25 | 1.65 | 2.21 | 1.46 |
| AAUUUUGCUAAUAGUCGCAGG [Fam3.1 aminoacylation ribozyme variant] | 1.98 | 2.05 | 2.65 | 1.83 | 1.89 | 1.76 |
| AAUUUUGCUAAUAGUCGGAAG [Fam3.1 aminoacylation ribozyme variant] | 1.22 | 1.2 | 3.1 | 1.03 | 1.23 | 1.13 |
| ACACACCUAGGUCAUCGGGUG [Fam2.2 aminoacylation ribozyme variant] | 3.61 | 4.91 | 19 | 3.19 | 2.98 | 3.51 |
| ACACACGUCAAGCAAUCGGUC [Fam1B.1 aminoacylation ribozyme variant] | 2.14 | 2.55 | 3.48 | 2.04 | 1.88 | 1.96 |
| ACACACUGCAAGCAAUCGGUC [Fam1B.1 aminoacylation ribozyme variant] | 1.48 | 1.73 | 1.36 | 1.33 | 1.43 | 1.23 |
| ACACACUUAAAGCAAUCGGUC [Fam1B.1 aminoacylation ribozyme variant] | 0.923 | 0.971 | 1.23 | 1.11 | 1.08 | 0.917 |
| ACACACUUCAAACAAUCGGUC [Fam1B.1 aminoacylation ribozyme variant] | 2.39 | 40.6 | 65.1 | 1.79 | 1.73 | 1.38 |
| ACACACUUCAAGAAAUCGGUC [Fam1B.1 aminoacylation ribozyme variant] | 1.32 | 4.86 | 5.64 | 1.27 | 1.24 | 1.41 |
| ACACACUUCAAGCAAUCGCUC [Fam1B.1 aminoacylation ribozyme variant] | 1.75 | 2.57 | 2.24 | 1.92 | 1.84 | 1.63 |
| ACAUUUGCUAAUAGUCGCAAG [Fam3.1 aminoacylation ribozyme variant] | 2.43 | 1.32 | 2.27 | 1.92 | 2.46 | 1.79 |
| ACCCACUUCAAGCAAUCGGUC [Fam1B.1 aminoacylation ribozyme variant] | 1.37 | 15.2 | 23.3 | 1.29 | 1.11 | 1.15 |
| ACGCACCUAGGUCAUCGGGUG [Fam2.2 aminoacylation ribozyme variant] | 3.1 | 4.93 | 29 | 3.55 | 3.42 | 4.23 |
| ACGUUUGCUAAUACUCGCAAG [Fam3.1 aminoacylation ribozyme variant] | 0.909 | 0.897 | 1.88 | 0.9 | 1.12 | 0.968 |
| ACUAACCUGGUCAUCGAGUGA [Fam2.1 aminoacylation ribozyme variant] | 3.83 | 5.42 | 2.68 | 2.91 | 3.19 | 4.84 |
